This passage reports Signal/background results from US20220017636A1 (Amgen, published 2022).

Assay in all cases: flow cytometry, peptide-loaded T2 cells;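 note: binding of single-chain Fv antibody constructs, raised in XenoMouse, to peptide-pulsed T2 cells measured by flow cytometry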
(In general: A flow cytometer gives signals particle by particle.)

Test [1] has as its target T1, KEA peptide complexed with HLA-A*02:01 on T2 cells (human).
T1 construct: whole, on cells
Procedure: (§1) Binding of pMAGE-HLA scFv constructs, generated from the XenoMouse, on peptide loaded T2 cells was evaluated by flow cytometry.

For test [2], the target named is T2, STXBP5 peptide complexed with HLA-A*02:01 on T2 cells (human).
T2 construct: whole, on cells
Procedure: as §1

The target in test [3] is T3, CNDP2 peptide complexed with HLA-A*02:01 on T2 cells (human).
T3 construct: whole, on cells; also called CNPD2
Procedure: as §1

The target in test [4] is T4, MYOF peptide complexed with HLA-A*02:01 on T2 cells (human).
T4 construct: whole, on cells
Procedure: as §1

Test [5] has as its target T5, ADF peptide complexed with HLA-A*02:01 on T2 cells (human).
T5 construct: whole, on cells
Procedure: as §1

Test [6] addresses T6, SLK peptide complexed with HLA-A*02:01 on T2 cells (human).
T6 construct: whole, on cells
Procedure: as §1

Test [7] addresses T7, COX14 peptide complexed with HLA-A*02:01 on T2 cells (human).
T7 construct: whole, on cells
Procedure: as §1

Test [8] has as its target T8, MAGEB2 peptide … (SEQ ID NO: 1) complexed with HLA-A*02:01 on the cell surface (human).
T8 construct: whole, on cells; also called pMAGE-HLA; MAGEB2 pMHC
Procedure: as §1

Test [9] deals with T9, MB peptide complexed with HLA-A*02:01 on T2 cells (human).
T9 construct: whole, on cells
Procedure: as §1

The target of test [10] is T10, DPYSL4 peptide complexed with HLA-A*02:01 on T2 cells (human).
T10 construct: whole, on cells
Procedure: as §1

B1: 18182-B5 (scFv)
scFv: EVQLLESGGGLVQPGGSLRLSCAASGFTFSSHAMSWVRQAPGKGLEWVSAISGSGGGTYYADSVKGRFTISRDNSKNTLYLQMNSLRAEDTAVYYCATGKGVHLGFDYWGQGTLVTVSSGGGGSGGGGSGGGGSELVLTQPPSVSVAPGQTARITCGGNNIGSKSVHWYQQKPGQAPVLVVYDDNDRPSGIPERFSGSNFGNTATLIISRVEAGDEADYYCQVWDSSSDHVVFGGGTKLTVL
notes: scFv in bacterial lysate, detected with anti-Flag M2
Consider B1, for which the Signal/background in test [1] was found to be 0.9; in test [2], 1; in test [3], 1; in test [4], 1; in test [5] it was 0.9; in test [6], 1. Besides, the Signal/background in test [7] was found to be 1; in test [8], 560; in test [9], 1; in [10], 1.

B2: 18182-E5 (scFv)
scFv: EVQLLESGGGLVQPGGSLRLSCAASGFTFSSYAMSWVRQAPGKGLEWVSTISGSGGGTYYADSVKGRFTISRDNSKNTLYLQMNSLRAEDTAVYYCATGKGVHLGFDYWGQGTLVTVSSGGGGSGGGGSGGGGSELVLTQPPSVSVAPGQTARITCGGNNIGSKSVHWHQQKPGQAPVLVVYDDNDRPSGIPERFSGSNSGNTATLTISRVEAGDEADYYCQVWDYSSDHVVFGGGTKLTVL
notes: as for B1
Take B2: the Signal/background in test [1] worked out at 0.9; in test [2], 0.8; in test [3] it was 0.8; in [4], 0.9; in [5] it was 1; in [6], 1. Further, the Signal/background was determined as 0.9 in test [7], 205 in [8], 0.9 in [9] and 1 in test [10].

B3: 18182-E10 (scFv)
scFv: EVQLLESGGGLVQPGGSLRLSCAASGFTFSSHAMSWVRQAPGQGLEWVSSISGSGGGTYYAASVKGRFTISRDNSKNTLYLQMNSLRAEDTAVYYCATGKGVHLNFDYWGQGTLVTVSSGGGGSGGGGSGGGGSELALTQPASASVAPGQTARITCGGNNIGSKSVHWHQQKPGQAPVLVVYDDNDRPSGIPERFSGSNSGNTATLTISRVEAGDEADFYCQVWDSSSDHVVFGGGTKLTVL
notes: as for B1
For B3, the Signal/background in [1] came out at 0.8; in [2] it was 0.8; in test [3], 0.8; in [4] it was 0.9; in test [5], 0.9; in [6] it was 1. Also, the Signal/background in test [7] is 0.9; in test [8] it was 273; in test [9], 0.9; in test [10] it was 0.9.

B4: 18182-G2 (scFv)
scFv: EVQLLESGGGLVQPGGSLRLSCAASGFTFSSHAMSWVRQAPGKGLEWVSAISGSGGGTYNADSVKGRFTISRDNSKNTLYLQMNSLRAEDTAAYYCVTGKGVHLGFDYWGQGTLVTVSSGGGGSGGGGSGGGGSELVLTQPPSVSVAPGQTARITCGGNNIGSKSVHWYQQKPGQAPVMVVYDDNDRPSGIPERFSGSNSGNTATLTISRVEAGDEADYYCQVWDSSSDHVIFGGGTKLTVL
notes: as for B1
As for B4, the Signal/background in [1] was 0.9; in test [2], 0.9; in test [3] it was 1; in [4], 1; in test [5], 1; in test [6], 1. The Signal/background in [7] was 0.9; in test [8], 320; in test [9], 1; in [10] it was 1.1.

B5: 18182-E6 (scFv)
scFv: EVQLLESGGGLVQPGGSLRLSCAASGFTFSSYAMSWVRQAPGKGLEWVSAISGSGGGTYYADSVKGRFTISRDNSKNTLYLQMNSLRAEDTAVYYCATGKGVHLNFDYWGQGTLVTVSSGGGGSGGGGSGGGGSELVLTQPSSVSVAPGQTARITCGGNNIGSKSVHWYQQKPGQAPVLVVYDDNDRPSGIPERFSGSNFGNTATLIISRVAAGDEADYYCQVWDSSSDHVVFGGGTKLTVL
notes: as for B1
As for B5, the Signal/background worked out at 0.9 in [1]; 0.9 in [2]; 1 in test [3]; 1 in test [4]; 1 in [5]; 1 in test [6]. For the same molecule, the Signal/background in test [7] stood at 1; in test [8], 431; in test [9], 0.9; in test [10] it was 0.9.

B6: 18182-B12 (scFv)
scFv: EVQLLESGGGLVQPGGSLRLSCAASGFTFSSYAMSWVRQAPGKGLEWVSAISGSGGGTYYADSVKGRFTISRDNSKNTLYLQMSSLRAEDTAVYYCATGKGVHLGFDYWGQGTLVTVSSGGGGSGGGGSGGGGSELVLTQPPSVSVAPGQTARITCGGNNIGSKSVHWHQQKPGQAPVLVVYDDNDRPSGIPERFSGSNSGNTATLTISRVEAGDEADYYCQVWDYSSDHVVFGGGTKLTVL
notes: as for B1
Regarding B6, the Signal/background in test [1] came out at 0.9; in test [2] it was 0.9; in test [3], 0.8; in test [4], 0.8; in test [5], 1; in test [6], 0.9. Further, the Signal/background in test [7] was 1; in [8], 208; in test [9], 0.8; in [10], 1.

B7: 18182-A4 (scFv)
scFv: EVQLLESGGGVVQPGRSLRLSCAASGFTFSSYAMTWVRQAPGQGLEWVSSISGSGGGTYYAASVKGRFTISRDNSKNTLYLQMNSLRAEDTAVYYCATGKGVHLGFDYWGQGTLVTVSSGGGGSGGGGSGGGGSELVLTQPPSVSVAPGQTARITCGGNNIGSKSVHWYQQKPGQAPVLVVYDDNDRPSGIPERFSGSNFGNTATLIISRVAAGDEADYYCQVWDSSSDHVVFGGGTKLTVL
notes: as for B1
B7: the Signal/background in [1] amounted to 0.9; in [2] it was 0.8; in test [3], 0.8; in [4], 1; in test [5], 1.1; in [6], 1. Moreover, the Signal/background in test [7] was found to be 0.9; in test [8], 202; in test [9], 1; in [10] it was 1.

B8: 18182-E1 (scFv)
scFv: EVQLLESGGGLVQPGGSLRLSCAASGFTFSSHAMSWVRQAPGKGLEWVSAISGSGGGTYNADSVKGRFTISRDNSKNTLYLQMNSLRAEDTAAYYCVTGKGVHLGFDYWGQGTLVTVSSGGGGSGGGGSGGGGSELVLTQPPSVSVAPGQTARITCGGNNIGSKSVHWYQQKPGQAPVMVVYDDNDRPSGIPERFSGSNSGNTATLTISRVEAGDEADYYCQVWDSSSDHVVFGGGTKLTVL
notes: as for B1
With B8, the Signal/background was found to be 0.9 in test [1]; 1 in [2]; 0.9 in test [3]; 0.9 in test [4]; 1 in test [5]; 1 in test [6]. For the same molecule, the Signal/background in test [7] was 0.8; in [8], 193; in test [9], 0.9; in [10] it was 0.9.

B9: 18182-G6 (scFv)
scFv: EVQLLESGGGLVQPGGSLRLSCAASGFTFSSYAMSWVRQAPGKGLEWVSAISGSGGGTYYADSVKGRFTISRDNSKNTLYLQMNSLRAEDTAAYYCVTGKGVHLGFDYWGQGTLVTVSSGGGGSGGGGSGGGGSELVLTQPPSVSVAPGQTARITCGGNNIGSKSVHWHQQKPGQSPVLVIYDDNDRPSGIPERFSGFNSGNTATLTISRVEAGDEADYYCQVWDSSSDHVVFGGGTKLTVL
notes: as for B1
On to B9, for which the Signal/background in test [1], in test [2], in [3], in test [4], in test [5] and in [6] was 1 in each case. Besides, the Signal/background came out at 1 in test [7], 365 in test [8], 1 in test [9] and 1 in [10].

B10: 18089-D12 (scFv)
scFv: EVQLLESGGGVVQPGRSLRLSCAASGFTFSTYGMHWVRQAPGKGLEWVAVISYDGSNKYYADSVKGRFTISRDDSKNTLYLQMNSLRAEDTAVYYCARGQLLTGYWGQGTLVTVSSGGGGSGGGGSGGGGSELVMTQSPSSLSASVGDRVTITCRASQGISNYLAWYQQKPGKVPKLLIYAASTLQSGVPSRFSGSGSGTDFTLTISSLQPEDVATYYCQKYNSAPFTFGPGTKVEIK
notes: as for B1
Take B10: the Signal/background in test [1] turned out to be 1; in test [2], 1; in test [3], 1; in test [4] it was 1.1; in test [5] it was 1.1; in test [6] it was 1.3. Also, the Signal/background in test [7] was 1.1; in [8] it was 176; in [9] it was 1.1; in test [10], 1.1.
